In the assay the target is T1, human 5MP2 (ITC sample) (human, UniProt Q7L1Q6 1-419).
T1 sequence: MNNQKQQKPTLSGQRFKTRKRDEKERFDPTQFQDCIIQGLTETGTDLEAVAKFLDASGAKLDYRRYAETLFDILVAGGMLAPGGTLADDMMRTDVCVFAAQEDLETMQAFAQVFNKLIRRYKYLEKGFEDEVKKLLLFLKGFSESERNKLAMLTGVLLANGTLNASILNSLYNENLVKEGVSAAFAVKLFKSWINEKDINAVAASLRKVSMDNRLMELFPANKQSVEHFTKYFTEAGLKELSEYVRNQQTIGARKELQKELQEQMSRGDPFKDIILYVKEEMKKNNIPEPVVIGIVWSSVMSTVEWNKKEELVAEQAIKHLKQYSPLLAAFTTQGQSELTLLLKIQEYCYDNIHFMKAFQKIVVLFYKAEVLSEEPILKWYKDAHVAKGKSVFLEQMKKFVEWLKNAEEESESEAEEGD
In words: ITC. A general note: In ITC the heat of successive injections is recorded.

As a reminder, the Kd is the free concentration of one partner at which half of the binding sites on the other are occupied at equilibrium, for simple one-to-one binding. Read a low Kd as tighter binding.

B1: Human eIF2β_(53-136) carrying two K-boxes (domain or fragment)
chain: DLEADEEDTRKKDASDDLDDLNFFNQKKKKKKTKKIFDIDEAEEGVKDLKIESDVQEPTEPEDDLDIMLGNKKKKKKNVKFPDE
For B1, the Kd is 1.5 µM.

Values taken from article PMC5062967 (Nucleic Acids Research, 2016).
